Measurements published in patent publication US12410253B2, “Compositions comprising anti-NRP2 antibodies” (aTyr Pharma, Inc., priority 2019, dated 2025).
Entries after “also recorded” stand apart in the source; their conditions may differ.

What was measured:
[1] = tested on: human lymphatic endothelial cell (HLEC); assay: HLEC migration toward VEGF-C (modified Boyden chamber, xCELLigence); type: cell-based; conditions: 191.5 pM VEGF-C, 24 hour period
Method: Migration assays were performed using a modified Boyden Chamber with […] pore size membrane, 16-well CIM plate (ACEA Biosciences.) Both sides of the membrane were coated with 5 μg/ml Fibronectin (Sigma) for 30 minutes at 37° C., 5% CO2. 160 μl of 191.5 pM VEGF-C or assay medium (0.1% BSA, ECM) was added to the lower chamber, the upper well attached, 50 ul assay medium added to the upper chamber before replacing the lid, and the plate was incubated for 1 hour at 37° C., 5% CO2 before baseline measurement was taken. HLECs were harvested, washed, and re-suspended in assay medium at 100,000 cells/well with aNRP2 antibody or control proteins and incubated for 30 minutes at 37° C., 5% CO2. Cells were added to the plate and incubated at room temperature for 30 minutes. Plate was inserted into xCELLigence RTCA DP (ACEA Biosciences) instrument, and migration was measured real-time every 5 minutes over a 24 hour period (2 wells per condition).

[2] = tested on: phospho-Akt levels in U251 glioblastoma cells; assay: Semaphorin 3F mediated inhibition of AKT phosphorylation in U251 cells; type: cell-based; conditions: antibody 10 μg/mL, 25 nM Sema3F 1 hour
Method: As shown schematically in FIG. 17, the treatment of cells with Sema3F should specifically block PI3K activity via NRP2 mediated interaction with plexin A1, thereby resulting in reduced phospho-Akt levels. To directly test the ability of the anti-NRP2 antibodies to block this effect, lysates were prepared following standard protocols (MesoScale Discovery, Phospho (Ser473)/Total Akt Assay Whole Cell Lysate Kit #K15100D). Serum starved and confluent U251 cells (Sigma, Cat. 09063001) were treated with 10 nM rapamycin (Sigma, Cat. 553211, 30 minutes), and blocking antibodies or controls were added (10 μg/mL, 30 minutes), followed by 25 nM Sema3F or serum free media for 1 hour in triplicate. Lysate protein concentrations were determined by BCA assay and samples were equalized to 0.4 mg/mL. Phospho and Total AKT were measured following the manufacturer's instructions and percent phosphorylation was calculated by dividing phosphorylated AKT relative units by total AKT relative units. Blocking of Sema3F for each antibody or control was determined by comparing percent phosphorylation of Sema3F treated cells to percent phosphorylation of non-Sema3F treated cells.

[3] = molecular target: T1, NRP2/FLT4(VEGFR3) (Homo sapiens, UniProt O60462); assay: Split-luciferase receptor dimerization assay, NRP2/FLT4 with VEGF-C; type: cell-based; conditions: antibody 100 nM; ligand induced dimerization
T1 construct: The complete extracellular domain and transmembrane helices of NRP2a (version 2), NRP2b (version 5); expressed in transfected cells; host or cells: Expi293, transient co-transfection
T1 sequence (O60462 23-859 isoform O60462-3 limits assumed): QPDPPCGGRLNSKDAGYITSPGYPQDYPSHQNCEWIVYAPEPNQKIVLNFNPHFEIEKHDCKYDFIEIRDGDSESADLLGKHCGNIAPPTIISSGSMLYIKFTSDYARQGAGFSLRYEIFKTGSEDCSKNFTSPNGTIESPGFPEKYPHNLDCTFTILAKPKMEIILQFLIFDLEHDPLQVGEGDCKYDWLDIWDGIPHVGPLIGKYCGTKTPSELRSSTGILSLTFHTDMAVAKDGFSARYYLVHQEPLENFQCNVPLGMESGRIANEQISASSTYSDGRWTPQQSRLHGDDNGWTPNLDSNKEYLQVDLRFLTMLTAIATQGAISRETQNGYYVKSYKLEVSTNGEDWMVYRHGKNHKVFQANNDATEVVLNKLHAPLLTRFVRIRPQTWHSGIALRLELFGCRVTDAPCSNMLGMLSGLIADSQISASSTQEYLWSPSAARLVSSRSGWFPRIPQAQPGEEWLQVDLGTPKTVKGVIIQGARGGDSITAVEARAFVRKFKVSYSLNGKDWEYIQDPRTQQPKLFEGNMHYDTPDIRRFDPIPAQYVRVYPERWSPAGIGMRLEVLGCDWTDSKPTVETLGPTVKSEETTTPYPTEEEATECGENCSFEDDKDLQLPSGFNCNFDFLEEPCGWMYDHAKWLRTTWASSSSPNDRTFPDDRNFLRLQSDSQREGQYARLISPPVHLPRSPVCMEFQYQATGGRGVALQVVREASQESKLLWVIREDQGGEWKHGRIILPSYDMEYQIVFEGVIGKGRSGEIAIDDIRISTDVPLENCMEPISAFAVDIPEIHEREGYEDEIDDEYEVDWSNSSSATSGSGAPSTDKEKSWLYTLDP
Method: (§1) To further extend the assessment of the biological activity of the anti-NRP2 antibodies, their activity was assessed in a receptor dimerization assay. In brief, vectors encoding a split luciferase pBiT1.1 and pBiT2.1 were obtained from Promega corporation (Madison, Wisconsin). The complete extracellular domain and transmembrane helices of NRP2a (version 2), NRP2b (version 5) (See table N1), FLT4 (VEGFR3), KDR (VEGFR2), and plexin A1 (PLXNA1) were cloned into the vectors and screened for optimal orientation, receptor density, and ligand induced dimerization, following established methods. Expi293 cells (Fisher) were transfected at 1 million cells/mL ˜20 hours prior to the assay with NRP2 and a co-receptor at equal mass amounts. Cells were counted, and 100,000 live cells were plated in a well of a white luminometer plate in Live Cell Imaging Solution (Fisher). Nano-Glo assay substrate (Promega) was added, and the plate was read on a Glomax 96 luminometer at room temperature to establish baseline luminescence. Antibodies were added to the well at 100 nM and the plate was again read to establish a new baseline and monitor the effects of the antibodies on spontaneous receptor dimerization. Depending on the receptor pair, typically 200 nM SEMA3F-p95 (aTyr Pharma), 2 nM VEGF-C(R&D Systems, Minnesota), or 2 nM VEGF165 (R&D Systems, Minnesota) were then added and the plate was again read to measure dimerization of receptors. Normalized responses for each individual well were calculated to the time point prior to addition of ligand, then normalized to no-antibody/no-ligand (baseline signal). Replicates were then processed to give average response and standard deviation. Results are summarized in Table E3 below, and shown graphically in FIGS. 3-10.

[4] = tested on: NRP2/PLXNA1; assay: Split-luciferase receptor dimerization assay, NRP2/PLXNA1 with SEMA3F; type: cell-based, human; conditions: antibody 100 nM; ligand induced dimerization
Method: as §1

| Molecule | migration of HLEC cells towards VEGF-C [1] | blocking of the Sema3F induced decrease in intracellular phospho-Akt levels [2] | effect on NRP2-VEGFR3 (FLT4) heterodimerization (in words) [3] | effect on NRP2-plexin heterodimerization (in words) [4] |
| --- | --- | --- | --- | --- |
| aNRP2-10v10: humanized, affinity matured anti-NRP2 antibody, target domain b1, VEGF-C blocking; VH SEQ ID NO: 49, VL SEQ ID NO: 50 (antibody, V domains shown, Variable heavy chain region; Light chain variable region) VH: EVQLVQSGAEVKKPGATVKISCKVSGFNIKDYYVHWVQQAPGKGLEWMGRIDVEDDETKYAPKFQGRVTITADTSTDTAYMELSSLRSEDTAVYYCATPIYGAREAWFAYWGQGTLVTVSS VL: DIQMTQSPSSLSASVGDRVTITCTASSSVSSSYLHWYQQKPGKAPKLLIYRTSNLASGVPSRFSGSGSGTDFTLTISSLQPEDFATYYCHQYYRSPPTFGGGTKVEIK | inhibited by both NRP2 antibodies to levels consistent with positive control antibodies; also recorded: effective block the migration of HLEC cells towards VEGF-C in a dose dependent manner | not blocked | potently inhibit | without significantly inhibiting |
| aNRP2-11v7: humanized, affinity matured anti-NRP2 antibody, target domain b2; VH SEQ ID NO: 51, VL SEQ ID NO: 52 (antibody, V domains shown, Variable heavy chain region; Light chain variable region) VH: QVQLVQSGAEVKKPGASVKVSCKASGYTFTSFGISWVRQAPGQGLEWIGEIYPRSGNTYYNENFKGRATMTADKSTSTAYMELRSLRSDDTAVYYCARSSGYYGSTPFPYWGQGTLVTVSS VL: DIQMTQSPSSLSASVGDRVTITCRASQDISNYLNWYQQKPGKAVKLLIYYTSRLHSGVPSRFSGSGSGTDYTFTISSLQPEDIATYYCQQGNTLPWTFGGGTKVEIK | inhibited by both NRP2 antibodies to levels consistent with positive control antibodies; also recorded: effective block the migration of HLEC cells towards VEGF-C in a dose dependent manner | blocked the reduction in phospho-Akt levels; also recorded: block semaphorin 3F mediated inhibition of AKT phosphorylation; also recorded: can be blocked | ability to inhibit | increased the ligand induced dimerization signal |
